The results in this text go back to patent US20240384250A1 (UAB RESEARCH FOUNDATION, published 2024).

Assay [1] concerns the target T1, Fc-tagged human FGFR4 ectodomain (human, UniProt P22455 22-369).
T1 construct: extracellular domain; Bought; also called Fc-FGFR4; not shown: Fc tag
T1 sequence (looked up): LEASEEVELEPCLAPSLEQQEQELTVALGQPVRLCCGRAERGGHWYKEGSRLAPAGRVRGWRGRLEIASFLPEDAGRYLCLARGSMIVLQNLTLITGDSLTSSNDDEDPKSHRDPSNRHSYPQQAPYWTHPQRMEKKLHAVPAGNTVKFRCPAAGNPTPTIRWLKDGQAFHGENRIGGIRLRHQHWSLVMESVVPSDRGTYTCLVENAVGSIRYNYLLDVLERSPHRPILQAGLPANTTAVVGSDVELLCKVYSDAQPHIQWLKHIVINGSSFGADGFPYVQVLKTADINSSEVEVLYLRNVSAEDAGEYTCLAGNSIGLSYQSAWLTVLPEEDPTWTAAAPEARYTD
Nature of the assay: pull-down: Fc-FGFR on protein A/G beads, then FGF21 with PBS, FLAG-sKL or heparin; Western blot with anti-FGF21. Here is the method: To study the interaction between Fc-tagged FGFR isoforms (Fc-FGFR), FGF isoforms, and sKL, immunoprecipitation studies were conducted. Protein A beads (6501, BioVision) and protein G beads (6511, BioVision) were used at 25 μl of a 50% stock slurry per sample in a total bead volume of 50 μl. Beads were washed 5× in activity buffer (50 mM Tris [pH 7.4], 200 mM NaCl, 0.01% Tween 20). Bead spin-down assays were all performed for 2 minutes at 5000 g. Beads were resuspended in 1 ml of activity buffer in a 1.5-ml snap cap tube. One microgram of Fc-FGFR1 to 4 was incubated with the beads for 1 hour on a bead rotator. Control samples were incubated with 2 μg of anti-FGF antibody instead of Fc-FGFR. Beads were then pelleted at 5000 g for 2 minutes and washed 5× with activity buffer. Beads were resuspended and incubated with different combinations of 500 ng of FGF, 1 μg of sKL, 1.6 United States Pharmacopeia (USP) units of heparin, or phosphate-buffered saline (PBS). Beads were incubated for 1 hour on a tube rotator, and beads were pelleted and washed as before. One hundred microliters of 1× Laemmli sample buffer (1610737, Bio-Rad) with 1.42 M 2-mercaptoethanol was added, and samples were boiled for 5 minutes. Samples were analyzed using SDS-PAGE and Western blotting.

Assay [2] addresses T2, recombinant FGF23 protein (species not stated for the assay).
T2 construct: also called fibroblast growth factor 23
T2 sequence (Q9GZV9 25-251, species assumed, looked up): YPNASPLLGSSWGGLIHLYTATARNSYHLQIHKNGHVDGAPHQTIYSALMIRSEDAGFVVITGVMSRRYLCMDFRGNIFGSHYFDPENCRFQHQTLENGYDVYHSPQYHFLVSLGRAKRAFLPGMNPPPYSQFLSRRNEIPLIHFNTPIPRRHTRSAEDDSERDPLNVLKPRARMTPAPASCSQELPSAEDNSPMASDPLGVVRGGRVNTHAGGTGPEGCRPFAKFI
In words: plate assay: 100 ng FGF23 coated, 400 ng purified FLAG-tagged sKL-N694Q or wildtype, anti-FLAG-HRP (FIG. 25E). On the procedure: Plates were coated with 100 ng of FGF23 or 200 ng of FGFR1c and incubated with 400 ng of purified FLAG-tagged wildtype sKL or sKL-N694Q.

B1: human FGF21 (ligand, UniProt Q9NSA1 29-209, looked up)
chain: HPIPDSSPLLQFGGQVRQRYLYTDDAQQTEAHLEIREDGTVGGAADQSPESLLQLKALKPGVIQILGVKTSRFLCQRPDGALYGSLHFDPEACSFRELLLEDGYNVYQSEAHGLPLHLPGNKSPHRDPAPRGPARFLPLPGLPPALPEPPGILAPQPPDVGSSDPLSMVGPSQGRSPSYAS
In the case of B1, the binding result in assay [1] was “no binding (tested: 500 ng FGF21 (Methods paragraph 182))”.

B2: FLAG-tagged sKL-N694Q (receptor)
chain: EPGDGAQTWARFSRPPAPEAAGLFQGTFPDGFLWAVGSAAYQTEGGWQQHGKGASIWDTFTHHPLAPPGDSRNASLPLGAPSPLQPATGDVASDSYNNVFRDTEALRELGVTHYRFSISWARVLPNGSAGVPNREGLRYYRRLLERLRELGVQPVVTLYHWDLPQRLQDAYGGWANRALADHFRDYAELCFRHFGGQVKYWITIDNPYVVAWHGYATGRLAPGIRGSPRLGYLVAHNLLLAHAKVWHLYNTSFRPTQGGQVSIALSSHWINPRRMTDHSIKECQKSLDFVLGWFAKPVFIDGDYPESMKNNLSSILPDFTESEKKFIKGTADFFALCFGPTLSFQLLDPHMKFRQLESPNLRQLLSWIDLEFNHPQIFIVENGWFVSGTTKRDDAKYMYYLKKFIMETLKAIKLDGVDVIGYTAWSLMDGFEWHRGYSIRRGLFYVDFLSQDKMLLPKSSALFYQKLIEKNGFPPLPENQPLEGTFPCDFAWGVVDNYIQVDTTLSQFTDLNVYLWDVHHSKRLIKVDGVVTKKRKSYCVDFAAIQPQIALLQEMHVTHFRFSLDWALILPLGNQSQVNHTILQYYRCMASELVRVNITPVVALWQPMAPNQGLPRLLARQGAWENPYTALAFAEYARLCFQELGHHVKLWITMNEPYTRQMTYSAGHNLLKAHALAWHVYNEKFRHAQNGKISIALQADWIEPACPFSQKDKEVAERVLEFDIGWLAEPIFGSGDYPWVMRDWLNQRNNFLLPYFTEDEKKLIQGTFDFLALSHYTTILVDSEKEDPIKYNDYLEVQEMTDITWLNSPSQVAVVPWGLRKVLNWLKFKYGDLPMYIISNGIDDGLHAEDDQLRVYYMQNYINEALKAHILDGINLCGYFAYSFNDRTAPRFGLYRYAADQFEPKASMKHYRKIIDSNGFPGPETLERFCPEEFTVCTECSFFHTRKS
notes: Human assignment as for m24; Tested in HEK293 media and as protein purified from supernatants; also called N6940 and sKL-N6940; not shown: C-terminal FLAG/His tag
On to B2, for which the “fold increase in FGF23 binding against the wildtype protein” value in assay [2] was found to be 3 fold.
